Results on one molecule are retold here after US20210145973A1 (CITY OF HOPE, published 2021).

Assay [1] addresses T1, acetylated-STAT3 protein (containing amino acids 127-722) (Homo sapiens (Human), UniProt P40763 127-722, acetylated (site not stated for this protein)).
T1 construct: Coated on the ELISA plate
As to the kind of experiment: ELISA, plate coated with acetylated-STAT3 protein (amino acids 127-722), n=3 (FIG. 20C, 20D). From the text: (§1) FIGS. 20A-20I: Conjugating phosphorothioated DNA oligonucleotides (PS) enables acetyl-STAT3 peptide cell penetration and specific interaction with STAT3 and exportin 7 proteins as well as downregulation of STAT3 activation. FIG. 20A. Phosphorothioated DNA oligonucleotide-modified STAT3 peptides efficiently penetrate human glioma cell line U251 and human colon cancer cell line HCT116, as assessed by flow cytometry. FIG. 20B. Cell penetration of the PS-acetyl-STAT3 peptide and its colocalization with STAT3 protein in U251 cells are shown by confocal microscopy. Scale, 50 μm. FIG. 20C and FIG. 20D. The PS acetyl-STAT3 peptide specifically binds to acetylated STAT3 protein and exportin 7, as assessed by ELISA, in which the plate is coated by an acetylated-STAT3 protein (containing amino acids 127-722), n=3. FIG. 20E and FIG. 20F. The specific interaction between acetyl-STAT3 peptide and STAT3/exportin 7 shown by immunoprecipitation of the FITC-labeled PS-acetyl-STAT3 peptide followed by Western blotting, shown in U251 cells. FIG. 20G. Downregulation of STAT3 phosphorylation, shown in HCT116 tumors by immunoprecipitation/Western blotting. FIG. 20H. […]
(§2) The PS acetyl-STAT3 peptide specifically binds to acetylated STAT3 protein and exportin 7, as assessed by ELISA, in which the plate is coated by an acetylated-STAT3 protein (containing amino acids 127-722), n=3 (FIG. 20C and FIG. 20D). […]
Background: ELISA stands for enzyme-linked immunosorbent assay.

For assay [2], the target named is T2, STAT3 protein (human, UniProt P40763 2-770).
T2 construct: Endogenous STAT3 of human cells (U251, HepG2) or of HCT116 xenograft tumor homogenates
As to the kind of experiment: immunoprecipitation of the FITC-labeled peptide, Western blotting, U251 cells (FIG. 20E, 20F).
Text: as §1, §2
In general terms: In western blotting, separated proteins are transferred to a membrane and probed.

Where no end group is shown, it is not given here. phosphorothioated ssDNA 20mer = not defined here

T2 sequence (P40763 2-770 limits assumed): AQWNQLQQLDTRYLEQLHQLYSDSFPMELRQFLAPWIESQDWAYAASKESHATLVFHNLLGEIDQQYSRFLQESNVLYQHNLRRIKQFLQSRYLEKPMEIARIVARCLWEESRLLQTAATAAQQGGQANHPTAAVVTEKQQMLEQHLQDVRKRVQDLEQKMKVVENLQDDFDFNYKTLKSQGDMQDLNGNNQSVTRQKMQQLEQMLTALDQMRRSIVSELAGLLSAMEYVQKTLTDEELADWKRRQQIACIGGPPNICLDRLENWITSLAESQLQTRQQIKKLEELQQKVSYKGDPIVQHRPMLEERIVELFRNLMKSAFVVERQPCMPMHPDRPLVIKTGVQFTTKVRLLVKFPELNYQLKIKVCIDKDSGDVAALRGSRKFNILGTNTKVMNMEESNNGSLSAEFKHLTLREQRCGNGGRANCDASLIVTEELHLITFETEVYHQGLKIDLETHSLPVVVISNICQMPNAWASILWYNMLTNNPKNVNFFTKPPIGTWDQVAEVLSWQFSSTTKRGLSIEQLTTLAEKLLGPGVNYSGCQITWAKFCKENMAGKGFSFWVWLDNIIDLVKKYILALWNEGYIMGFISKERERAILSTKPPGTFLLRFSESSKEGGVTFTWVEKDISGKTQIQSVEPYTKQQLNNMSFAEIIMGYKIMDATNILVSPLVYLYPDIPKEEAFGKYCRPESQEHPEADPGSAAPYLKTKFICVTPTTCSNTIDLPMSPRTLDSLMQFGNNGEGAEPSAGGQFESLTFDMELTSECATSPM
T1 sequence (P40763 127-722): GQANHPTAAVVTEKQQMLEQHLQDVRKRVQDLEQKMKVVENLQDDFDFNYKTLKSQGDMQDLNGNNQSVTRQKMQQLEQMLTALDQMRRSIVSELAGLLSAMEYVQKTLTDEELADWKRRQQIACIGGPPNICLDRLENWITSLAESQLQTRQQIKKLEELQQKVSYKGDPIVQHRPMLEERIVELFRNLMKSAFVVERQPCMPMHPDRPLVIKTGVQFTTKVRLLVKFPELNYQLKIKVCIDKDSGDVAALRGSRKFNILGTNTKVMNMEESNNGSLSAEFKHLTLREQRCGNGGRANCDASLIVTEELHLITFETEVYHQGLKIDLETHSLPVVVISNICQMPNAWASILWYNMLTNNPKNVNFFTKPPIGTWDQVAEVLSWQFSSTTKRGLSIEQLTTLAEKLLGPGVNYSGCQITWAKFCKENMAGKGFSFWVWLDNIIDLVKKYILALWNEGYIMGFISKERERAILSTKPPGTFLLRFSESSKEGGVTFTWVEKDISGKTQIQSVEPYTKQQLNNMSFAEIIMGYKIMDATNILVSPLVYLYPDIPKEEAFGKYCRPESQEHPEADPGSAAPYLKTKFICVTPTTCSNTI

B1: PS-acetyl-STAT3 peptide (STAT3-acet.K685 peptide elongated at its C-terminus with a phosphorothioated ssDNA 20mer, FITC-labeled) (peptide)
peptide: PDIPKEEAFGK(Ac)YCRPESQEHPC-{hydrazide linker with FITC (Fam dT)-phosphorothioated ssDNA 20mer}
modifications: cysteine pairing not given here; reading uncertain
notes: Peptide-oligonucleotide conjugate; only the peptide part is a polypeptide; The FITC in the linker was used as the tag for precipitation
Take B1: the binding result in assay [1] and in assay [2] was “binds” in each case.
